{
  "source": "patent US20100041743A1",
  "test_in_all_cases": "cell-based or functional assay",
  "key": {"[1]": {"molecular_target": "human IgG (Gammonativ, Octapharma)"}, "[2]": {"molecular_target": "anti-OVA mouse IgG1 (mAb, Sigma)"}, "rabbit IgG (Sigma)": {"molecular_target": "rabbit IgG (Sigma)"}},
  "data": [
    {"substance": "hybrid bFcRn α-chain / mouse β2m receptor (bovine FcRn expressed in BAC 128E04 transgenic mice) (from UniProt F6R592 35-358; P01887 21-119)", "values": [
      {"measurement": "beta-phase half-life (hours) of injected human IgG in bFcRn Tg mice (line #14 homozygote), 10 µg/BWg", "setting": "[1]", "value": 172, "unit": "h"},
      {"measurement": "beta-phase half-life (hours) of injected human IgG in bFcRn Tg mice (line #14 homozygote), 20 µg/BWg", "setting": "[1]", "value": 181, "unit": "h"},
      {"measurement": "beta-phase half-life (hours) of injected mouse IgG in bFcRn Tg mice (line #14 homozygote), 10 µg/BWg", "setting": "[2]", "value": 165, "unit": "h"},
      {"measurement": "half-life of injected rabbit IgG in bFcRn/mFcRn-/- mice (15 hours in FcRn-/- mice)", "setting": "rabbit IgG (Sigma)", "value": 67, "unit": "h"}
    ]}
  ]
}
